The target of test [1] is T1, human ASCT2 (system ASC amino acid transporter 2), endogenous on human cancer cell lines KMS-11, OPM-2, WiDr … (human, UniProt Q15758 1-541).
T1 construct: also called SLC1A5
T1 sequence: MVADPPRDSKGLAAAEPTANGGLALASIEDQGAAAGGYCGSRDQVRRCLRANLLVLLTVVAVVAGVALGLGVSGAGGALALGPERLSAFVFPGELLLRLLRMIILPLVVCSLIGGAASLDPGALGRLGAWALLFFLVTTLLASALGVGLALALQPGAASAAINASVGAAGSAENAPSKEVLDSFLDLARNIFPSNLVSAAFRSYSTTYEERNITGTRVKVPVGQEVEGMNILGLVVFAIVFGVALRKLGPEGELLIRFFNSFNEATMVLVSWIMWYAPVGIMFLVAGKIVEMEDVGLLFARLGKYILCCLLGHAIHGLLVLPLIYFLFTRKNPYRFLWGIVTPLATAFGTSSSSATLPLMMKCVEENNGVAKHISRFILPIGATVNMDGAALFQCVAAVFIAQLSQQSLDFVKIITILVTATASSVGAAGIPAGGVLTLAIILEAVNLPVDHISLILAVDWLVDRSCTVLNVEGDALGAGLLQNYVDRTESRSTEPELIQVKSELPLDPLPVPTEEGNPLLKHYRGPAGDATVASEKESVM
The test can be described thus: flow cytometry on KMS-11 cells. How it is done: (§1) The human ASCT2-myc/His gene-introduced CHO cell obtained in Example 2, the vector-introduced CHO cell and the multiple myeloma cell line KMS-11 (HSRRB No. JCRB1179) were respectively cultured in a 5% CO₂ incubator for 3 to 4 days at 37° C. The human ASCT2-myc/His gene-introduced CHO cells and the vector-introduced CHO cells were peeled off with a 0.02% EDTA solution (manufactured by Nacalai Tesque) and washed with a mixed solution of PBS, 0.02% EDTA and 0.05% sodium azide. Additionally, in order to avoid the non-specific adsorption of antibodies, the cells were blocked for 30 minutes at ice temperature using 1% BSA-PBS for the human ASCT2-myc/His gene-introduced CHO cells and the vector-introduced CHO cells, and using 100 μg/mL of human IgG (manufactured by Sigma) for KMS-11. The cells were seeded into a 96-well U-bottom plate so as to give a density of 1×10⁵ to 5×10⁵ cells/100 μL/well and centrifuged at 1,500 rpm for 5 minutes (05PR-22, manufactured by Hitachi Koki) and then the supernatant was removed. The test substances as the primary antibody, i.e., the purified antibodies and rat IgG2a-UNLB (negative control, manufactured by Beckman Coulter) or KM511 {negative control, anti-G-CSF derivative antibody, [Agric. Biol. Chem., 53, 1095 (1989)], mouse IgG1} were diluted to give a final concentration of 10 μg/mL in a mixed solution (hereinafter, referred to as “Dilution Solution A”) of 1% BSA-PBS, 0.02% EDTA and 0.05% sodium azide and the resulting solution was added at the volume of 100 μL/well, followed by reaction for 60 minutes at ice temperature. […] Washing with Dilution Solution A was carried out three times again, the cells were suspended in PBS and the fluorescence intensity was measured by a flow cytometer (Cytomics FC500 MPL, manufactured by Beckman Coulter).
(In general: Flow cytometry measures light scatter and fluorescence of single cells or particles in a stream.)

The target of test [2] is T2, human ASCT2-myc/His (fusion protein in which myc/His was added to the C-terminal of human ASCT2), expressed … (human, UniProt Q15758 1-541).
T2 construct: Also used as cell lysate in Western blotting and immunoprecipitation; also called ASCT2/CHO; human ASCT2-myc/His gene-introduced CHO cells
T2 sequence: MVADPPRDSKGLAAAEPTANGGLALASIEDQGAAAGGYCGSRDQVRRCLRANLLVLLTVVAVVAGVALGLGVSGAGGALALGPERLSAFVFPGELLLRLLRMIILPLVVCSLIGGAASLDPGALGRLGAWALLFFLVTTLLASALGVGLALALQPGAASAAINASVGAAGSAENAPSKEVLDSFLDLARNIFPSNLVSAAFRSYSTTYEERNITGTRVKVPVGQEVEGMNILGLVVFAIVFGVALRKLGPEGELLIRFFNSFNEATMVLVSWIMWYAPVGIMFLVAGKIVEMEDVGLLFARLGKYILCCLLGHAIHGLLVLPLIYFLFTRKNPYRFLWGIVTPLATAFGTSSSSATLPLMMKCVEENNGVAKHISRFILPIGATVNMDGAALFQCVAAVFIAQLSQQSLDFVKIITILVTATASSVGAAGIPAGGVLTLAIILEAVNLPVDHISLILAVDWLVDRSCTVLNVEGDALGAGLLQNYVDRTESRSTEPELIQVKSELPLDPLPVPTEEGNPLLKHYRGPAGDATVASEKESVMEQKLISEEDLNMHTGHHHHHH
Description: flow cytometry on human ASCT2-myc/His CHO cells. The protocol:
as §1

In test [3] the target is T1, human ASCT2 (system ASC amino acid …). The test can be described thus: flow cytometry on OPM-2 cells, 0.01 to 10 ug/mL. How it is done:
(§2) Each of the human ASCT2-myc/His gene-introduced CHO cell obtained in Example 2, and the multiple myeloma cell line OPM-2 (DSMZ Accession No. ACC50) was cultured in a 5% CO₂ incubator for 3 to 4 days at 37° C. The human ASCT2-myc/His gene-introduced CHO cells were peeled off with a 0.02% EDTA solution (manufactured by Nacalai Tesque), and in order to avoid the non-specific adsorption of antibodies, the cells were blocked for 30 minutes at ice temperature using 1% BSA-PBS. The cells were seeded into a 96-well U-bottom plate so as to give a density of 1×10⁵ to 5×10⁵ cells/100 μL/well. The plates were centrifugation at 1,500 rpm for 5 minutes (05PR-22, manufactured by Hitachi Koki), and then the supernatant was removed. As the primary antibody, the purified antibody which was a test substance was diluted to give a final concentration of 0.01 μg/mL to 10 μg/mL in 1% BSA-PBS, and dispensed to the plate at 100 μL/well, followed by reaction at ice temperature for 60 minutes. After washing the cells with 1% BSA-PBS, FITC-labeled anti-human immunoglobulin G (H+L) (manufactured by Jackson Laboratories) diluted with 1% BSA-PBS was added as the secondary antibody, followed by reaction at ice temperature for 30 minutes under shading. The cells were washed with 1% BSA-PBS and then suspended in PBS. The fluorescence intensity of the cells was measured by a flow cytometer (Cytomics FC500 MPL, manufactured by Beckman Coulter).

Test [4] deals with T2, human ASCT2-myc/His (fusion protein in …). The test can be described thus: flow cytometry on human ASCT2-myc/His CHO cells, 0.01 to 10 ug/mL. The protocol: as §2
Test [5] has as its target T3, mouse ASCT2-myc/His, expressed on CHO cells (mouse, UniProt P51912 1-553).
T3 construct: also called mouse ASCT2/CHO
T3 sequence: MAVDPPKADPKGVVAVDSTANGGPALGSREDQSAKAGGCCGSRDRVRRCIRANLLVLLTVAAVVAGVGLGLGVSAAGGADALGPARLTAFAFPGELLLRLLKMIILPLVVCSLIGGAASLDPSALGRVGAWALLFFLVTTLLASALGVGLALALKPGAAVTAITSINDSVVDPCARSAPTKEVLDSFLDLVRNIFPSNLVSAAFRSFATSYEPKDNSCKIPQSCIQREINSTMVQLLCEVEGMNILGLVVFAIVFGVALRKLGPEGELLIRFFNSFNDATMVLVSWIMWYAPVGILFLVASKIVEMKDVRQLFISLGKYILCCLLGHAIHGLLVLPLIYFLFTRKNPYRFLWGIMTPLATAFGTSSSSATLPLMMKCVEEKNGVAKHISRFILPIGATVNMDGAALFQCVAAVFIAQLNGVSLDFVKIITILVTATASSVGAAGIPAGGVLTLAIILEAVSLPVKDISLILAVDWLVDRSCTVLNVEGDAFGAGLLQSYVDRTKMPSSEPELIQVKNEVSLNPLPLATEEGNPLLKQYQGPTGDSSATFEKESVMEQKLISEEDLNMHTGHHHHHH
The test can be described thus: flow cytometry on mouse ASCT2/CHO cells.

B1: anti-ASCT2 monoclonal antibody KM4008 (hybridoma KM4008, FERM BP-10962) (antibody, V domains shown)
VH: QIQLVQSGPELKKPGETVKISCKASGYTFTTFGMSWVKQVPGKGLKWMGWIHTYAGVPIYGDDFKGRFAFSLETSASTAYLQINNVKNEDTATYFCARRSDNYRYFFDYWGQGTTLTVSS
VL: DIQMTQTTSSLSASLGDRVTISCRASQDIRNYLNWYQRKPHGTVKLLIYYTSRLHSGVPSRFSGSGSGTDYSLTISNLEQEDIATYFCQQGHTLPPTFGGGTKLEIKR
notes: Mouse monoclonal antibody
For the molecule B1, the binding result in test [1] and in test [2] was “binds” each time.

B2: anti-ASCT2 human chimeric antibody cKM4008 (antibody, V domains shown)
VH: QIQLVQSGPELKKPGETVKISCKASGYTFTTFGMSWVKQVPGKGLKWMGWIHTYAGVPIYGDDFKGRFAFSLETSASTAYLQINNVKNEDTATYFCARRSDNYRYFFDYWGQGTTLTVSS
VL: DIQMTQTTSSLSASLGDRVTISCRASQDIRNYLNWYQRKPHGTVKLLIYYTSRLHSGVPSRFSGSGSGTDYSLTISNLEQEDIATYFCQQGHTLPPTFGGGTKLEIKR
notes: VH and VL of KM4008 were inserted into vector pKANTEX93, which carries human CH and CL; The SDS-PAGE pattern was consistent with the IgG class
As to B2, the binding result in test [3] and in test [4] was “binds” throughout.

B3: anti-ASCT2 human chimeric antibody cKM4012 (antibody, V domains shown)
VH: QIQLVQSGPELKKPGETVKISCKASGYTFTTYGMSWVKQTPGKGLKWMGWIHTYSGVPIYGDDSKGRFAFSLETSGSIAYLQINNVKNEDTATYFCARRSDGYRYFFDYWGQGTTLTVSS
VL: DIQMTQITSSLSASLGDRVTISCRASQDIRNYLNWYQQKPDGTVKLLIYYTSRLHSGVPSRFSGSGSGTDYSLTISNLEQEDIATYFCQQGNTLPPTFGGGTKLEIKR
notes: VH and VL of KM4012 were inserted into vector pKANTEX93, which carries human CH and CL; The SDS-PAGE pattern was consistent with the IgG class
As to B3, the binding result in test [3] and in test [4] was “binds” throughout.

B4: anti-ASCT2 monoclonal antibody KM4012 (hybridoma KM4012, FERM BP-10963) (antibody, V domains shown)
VH: QIQLVQSGPELKKPGETVKISCKASGYTFTTYGMSWVKQTPGKGLKWMGWIHTYSGVPIYGDDSKGRFAFSLETSGSIAYLQINNVKNEDTATYFCARRSDGYRYFFDYWGQGTTLTVSS
VL: DIQMTQITSSLSASLGDRVTISCRASQDIRNYLNWYQQKPDGTVKLLIYYTSRLHSGVPSRFSGSGSGTDYSLTISNLEQEDIATYFCQQGNTLPPTFGGGTKLEIKR
notes: Hybridoma antibody
On to B4, for which the binding result in test [1] and in test [2] was “binds” each time.

B5: anti-ASCT2 monoclonal antibody KM4018 (antibody, V domains shown)
VH: EVQLVESGGGLVQSGRSIRLSCAASGFSFSNYYMAWVRQAPSKGLEWVASITKGGGNTYYRDSVKGRFTFSRDNAKSTLYLQMDSLRSEDTATYYCARQVTIAAVSTSYFDSWGQGVMVTVSS
VL: DIVLTQSPALAVSLGQRATISCKTNQKVDYYGNSYVYWYQQKPGQQPKLLIYLASNLASGIPARFSGRGSGTDFTLTIDPVEADDTATYYCQQSRNLPYTFGAGTKLELKR
notes: Hybridoma antibody
In the case of B5, the binding result in test [5] was “no binding”; in test [1], “binds”; in test [2], “binds”.

B6: anti-ASCT2 human chimeric antibody cKM4018 (antibody, V domains shown)
VH: EVQLVESGGGLVQSGRSIRLSCAASGFSFSNYYMAWVRQAPSKGLEWVASITKGGGNTYYRDSVKGRFTFSRDNAKSTLYLQMDSLRSEDTATYYCARQVTIAAVSTSYFDSWGQGVMVTVSS
VL: DIVLTQSPALAVSLGQRATISCKTNQKVDYYGNSYVYWYQQKPGQQPKLLIYLASNLASGIPARFSGRGSGTDFTLTIDPVEADDTATYYCQQSRNLPYTFGAGTKLELKR
notes: VH and VL of KM4018 were inserted into vector pKANTEX93, which carries human CH and CL; The SDS-PAGE pattern was consistent with the IgG class
B6: the binding result in test [3] and in test [4] was “binds” throughout.
